Assay results reported in patent US20160251419A1 (ROCKEFELLER UNIVERSITY, published 2016).

B1: monoclonal antibody 4b1.h9 (antibody, V domains shown)
VH: EVQLQESGPVLVKPGASVKMSCKASGYTFTDYYMNWVKQSHGKSLEWIGVINPYNGGTSYNQKFKGKATLTVDKSSSTAYMELNSLTSEDSAVYYCARRRGYAMDYWGQGTSVTVSS
VL: DIQMTQSPASLSASVGETVTITCRASENIYSYLAWYQQKQGKSPQLLVYNAKTLAEGVPSRFSGSGSGTQFSLKINSLQPEDFGSYYCQHHYGTPYTFGGGTNLEIK
B2: monoclonal antibody 5a8.b11 (antibody, V domains shown)
VH: EVQLQESGPELVKPGASVKIPCKASGYTFTDYNMDWVKQSHGKSLEWIGDINPNNGGTIYNQKFKGKATLTVDKSSSTAYMELRSLTSEDTAVYYCARKGERGFDYWGQGTTLTVSS
VL: ENVLTQSPAIMSASLGEKVTMSCRASSSVNYMYWYQQKSDASPKLWIYYTSNLAPGVPARFSGSGSGNSYSLTISSMEGEDAATYYCQQFTSSPSTFGAGTKLELK
B3: monoclonal antibody 4a8.e11 (antibody, V domains shown)
VH: EVQLQESGGGLVKPGGSLKLSCAASGFTFSDYGMHWVRQAPEKGLEWVAYISSGSSTVYCADTVKGRFTISRDNAKNTLFLQMTSLRSEDTAMYYCARRWGYFDYWGQGTTLTVSS
VL: DIKMTQSPSSMYASLGERVTFTCKASQDINSFLSWFQQKPGKSPKTLIYRANRLVDGVPSRFSGSGSGQDYSLTITSLEFEDMGIYYCLQYDEFPYTFGGGTKLEIK
notes: Mouse hybridoma mAb raised against NUCB1-capped hIAPP protofibrils; kappa light chain; also called mAb 4a8.e11
B4: monoclonal antibody 3f2.e10 (antibody, V domains shown)
VH: EVQLQESGGGLVQPKGSLKLSCAASGFSFNTYAMNWVRQAPGKGLEWVARIRSKSNNYATYYADSVKDRFTISRDDSESMLYLQMNNLKTEDTAMYYCVRLGAMDYWGQGTSVTVSS
VL: DIVMTQSQKFMSTSVGDRVSVTCKASQNVGTNVAWYQQKPGQSPKALIYSASYRYSGVPDRFTGSGSGTDFTLTISNVQSEDLAEYFCQQYNSYPLTFGAGTKLEL
B5: monoclonal antibody 5c9.a2 (antibody, V domains shown)
VH: EVQLQESGPVLVKPGASVKMSCKASGYTFTDYYMNWVKQSHGKSLEWIGVINPYNGGTSYNQKFKGKATLTVDKSSSTAYMELNSLTSEDSAVYYCASLRRRTDYFDYWGQGTTLTVSS
VL: DIVMTQSHKFMSTSVGDRVSITCKASQDVGTAVAWYQQKPGQSPKLLIYWASTRHTGVPDRFTGSGSGTDFTLTISNVQSEDLADYFCQQYSSYPLTFGAGTKLELK
B6: monoclonal antibody 7b6.b12 (antibody, V domains shown)
VH: EVQLQESGAELVKPGASVKISCKVSGYTFTDHTIHWMKQRPEQGLEWIGYIYPRDGSTKYNEKFKGKATLTADKSSSTAYMQLNSLTSEDSAVYFCARPYDYAWFAYWGQGTLVTVSA
VL: DILLTQSPAILSVSPGERVSFSCRASQSIGTSIHWYQQRTNGSPRLLIKYASESISGIPSRFSGSGSGTDFTLSINSVESEDIADYYCQQSNSWPFTFGSGTKLEIK
notes: Mouse hybridoma mAb raised against NUCB1-capped hIAPP protofibrils; kappa light chain; also called mAb 7b6.b12

Columns and labels:
[1] = target: Recombinant Aβ1-42 (rAβ1-42 peptides) in the Thioflavin T fibril formation assay (UniProt P05067 672-713); experiment: cell-based or functional assay
[2] = target: T1, amyloid-β Aβ(M1-42) peptide, structures along the aggregation pathway (Aβ1-42 protofibrils); experiment: dot blot of aggregation time points (FIG. 18)
T1 construct: Expressed in E. coli
Excerpt: (A) Aβ₁₋₄₂ aggregation in a thioflavin T fluorescence assay guided sample collection (red circles) for a dot blot assay. (B) Samples from these time points were spotted on PVDF membranes and blotted with an anti-Aβ mAb to detect total Aβ₁₋₄₂, or with 4a8.e11, 3f2.e10, or 7b6.b12. (C) Bar graph showing quantitation of 4a8.e11 reactive material at indicated timepoints. (D) Bar graph showing quantitation of 3f2.e10 reactive material at indicated timepoints. (E) Bar graph showing quantitation of 7b6.b12 reactive material at indicated timepoints. The spots were quantified with ImageJ and normalized to total Aβ₁₋₄₂.
For kinetic experiments, aliquots of the purified Aβ42 were resuspended in 6M guanidinium hydrochloride and subjected to gel filtration on a Superdex Peptide column in 20 mM sodium phosphate buffer, pH 8, with 200 μM EDTA. The monomer-containing peak was then lyophilized and subjected to a second round of resuspension in 6M guanidinium hydrochloride and gel filtration on a Superdex Peptide column in 20 mM sodium phosphate buffer, pH 8, with 200 μM EDTA. […] Fluorescence measurements were made at regular intervals using FlexStation III (Molecular Devices) with excitation and emission at 440 and 480 nm, respectively. Each experimental point is the mean of the fluorescence signal of 6 wells containing aliquots of the same solution. […]

Recombinant Aβ1-42 (rAβ1-42 peptides) in the Thioflavin T fibril formation assay, sequence (P05067 672-713 limits assumed): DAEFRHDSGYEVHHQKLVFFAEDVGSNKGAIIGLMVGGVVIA
T1 sequence (peptide, as listed by the source): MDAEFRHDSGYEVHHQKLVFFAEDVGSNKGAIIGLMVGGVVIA

| Binder | T50 (time in minutes for 50% inhibition of fibril formation) [1] | binding result [2] |
| --- | --- | --- |
| B1 | 60.7 min |  |
| B2 | 40.3 min |  |
| B3 | 37.9 min | binds |
| B4 | 42.6 min |  |
| B5 | 43.2 min |  |
| B6 | 40.2 min | binds |
